Results taken from paper PMC10397247.
Blank lines part the entries; values can stand above or below the binder they belong to.

What was measured:
4H1146-AA = molecular target: T1, 4H1146-AA; experiment: two-hybrid library CCmax;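 note: natural log of median RNA to DNA barcode read ratio; higher means stronger binding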
T1 chain: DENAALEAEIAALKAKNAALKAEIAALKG

4H1348-AA = molecular target: T2, 4H1348-AA; experiment: two-hybrid library CCmax; conditions: mean of both orientations;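 note: natural log of median RNA to DNA barcode read ratio; higher means stronger binding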
T2 chain: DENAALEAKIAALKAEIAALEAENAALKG

4H1391-AA = molecular target: T3, 4H1391-AA; experiment: two-hybrid library CCmax;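 note: natural log of median RNA to DNA barcode read ratio; higher means stronger binding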
T3 chain: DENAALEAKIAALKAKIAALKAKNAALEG

4H146-AA = molecular target: T4, 4H146-AA; experiment: two-hybrid library CCmax; conditions: mean of both orientations;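 note: natural log of median RNA to DNA barcode read ratio; higher means stronger binding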
T4 chain: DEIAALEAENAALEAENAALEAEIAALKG

4H1809-AA = molecular target: T5, 4H1809-AA; experiment: two-hybrid library CCmax; conditions: mean of both orientations;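 note: natural log of median RNA to DNA barcode read ratio; higher means stronger binding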
T5 chain: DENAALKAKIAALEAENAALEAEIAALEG

4H1854-AA = molecular target: T6, 4H1854-AA; experiment: two-hybrid library CCmax; conditions: mean of both orientations;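 note: natural log of median RNA to DNA barcode read ratio; higher means stronger binding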
T6 chain: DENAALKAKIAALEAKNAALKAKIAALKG

4H189-AA = molecular target: T7, 4H189-AA; experiment: two-hybrid library CCmax; conditions: mean of both orientations
T7 chain: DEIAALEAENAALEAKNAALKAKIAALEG

4H2248-AA = molecular target: T8, 4H2248-AA; experiment: two-hybrid library CCmax; conditions: mean of both orientations
T8 chain: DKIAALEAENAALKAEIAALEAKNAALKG

4H2283-AA = molecular target: T9, 4H2283-AA; experiment: two-hybrid library CCmax; conditions: mean of both orientations
T9 chain: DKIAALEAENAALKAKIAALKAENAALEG

4H2713-AA = molecular target: T10, 4H2713-AA; experiment: two-hybrid library CCmax; conditions: mean of both orientations
T10 chain: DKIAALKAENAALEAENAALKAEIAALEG

4H2742-AA = molecular target: T11, 4H2742-AA; experiment: two-hybrid library CCmax; conditions: mean of both orientations
T11 chain: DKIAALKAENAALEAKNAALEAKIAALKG

4H2948-AA = molecular target: T12, 4H2948-AA; experiment: two-hybrid library CCmax; conditions: mean of both orientations
T12 chain: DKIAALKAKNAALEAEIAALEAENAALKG

4H2991-AA = molecular target: T13, 4H2991-AA; experiment: two-hybrid library CCmax; conditions: mean of both orientations
T13 chain: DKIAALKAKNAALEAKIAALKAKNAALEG

4H3029-AA = molecular target: T14, 4H3029-AA; experiment: two-hybrid library CCmax; conditions: mean of both orientations
T14 chain: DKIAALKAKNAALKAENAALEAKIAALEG

4H3066-AA = molecular target: T15, 4H3066-AA; experiment: two-hybrid library CCmax; conditions: mean of both orientations
T15 chain: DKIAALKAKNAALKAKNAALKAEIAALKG

4H3102-AA = molecular target: T16, 4H3102-AA; experiment: two-hybrid library CCmax; conditions: mean of both orientations
T16 chain: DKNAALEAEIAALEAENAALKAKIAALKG

4H3121-AA = molecular target: T17, 4H3121-AA; experiment: two-hybrid library CCmax; conditions: mean of both orientations
T17 chain: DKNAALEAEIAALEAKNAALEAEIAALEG

4H3417-AA = molecular target: T18, 4H3417-AA; experiment: two-hybrid library CCmax; conditions: mean of both orientations
T18 chain: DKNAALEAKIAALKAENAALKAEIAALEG

4H3446-AA = molecular target: T19, 4H3446-AA; experiment: two-hybrid library CCmax
T19 chain: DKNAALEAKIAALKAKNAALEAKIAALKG

4H3591-AA = molecular target: T20, 4H3591-AA; experiment: two-hybrid library CCmax; conditions: mean of both orientations
T20 chain: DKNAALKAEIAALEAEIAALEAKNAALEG

4H3628-AA = molecular target: T21, 4H3628-AA; experiment: two-hybrid library CCmax; conditions: mean of both orientations
T21 chain: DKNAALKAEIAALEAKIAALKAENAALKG

4H3666-AA = molecular target: T22, 4H3666-AA; experiment: two-hybrid library CCmax; conditions: mean of both orientations
T22 chain: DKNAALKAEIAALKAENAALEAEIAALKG

4H3709-AA = molecular target: T23, 4H3709-AA; experiment: two-hybrid library CCmax; conditions: mean of both orientations
T23 chain: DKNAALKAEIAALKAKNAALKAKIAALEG

4H391-AA = molecular target: T24, 4H391-AA; experiment: two-hybrid library CCmax; conditions: mean of both orientations
T24 chain: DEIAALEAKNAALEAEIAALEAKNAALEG

4H3920-AA = molecular target: T25, 4H3920-AA; experiment: two-hybrid library CCmax; conditions: mean of both orientations
T25 chain: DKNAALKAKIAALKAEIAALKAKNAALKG

4H3939-AA = molecular target: T26, 4H3939-AA; experiment: two-hybrid library CCmax; conditions: mean of both orientations
T26 chain: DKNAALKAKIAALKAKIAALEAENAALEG

4H428-AA = molecular target: T27, 4H428-AA; experiment: two-hybrid library CCmax; conditions: mean of both orientations
T27 chain: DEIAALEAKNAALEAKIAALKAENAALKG

4H478-AA = molecular target: T28, 4H478-AA; experiment: two-hybrid library CCmax; conditions: mean of both orientations
T28 chain: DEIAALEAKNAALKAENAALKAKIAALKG

4H497-AA = molecular target: T29, 4H497-AA; experiment: two-hybrid library CCmax; conditions: mean of both orientations
T29 chain: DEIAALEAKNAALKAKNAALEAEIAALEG

4H656-AA = molecular target: T30, 4H656-AA; experiment: two-hybrid library CCmax; conditions: mean of both orientations
T30 chain: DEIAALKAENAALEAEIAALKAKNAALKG

4H675-AA = molecular target: T31, 4H675-AA; experiment: two-hybrid library CCmax; conditions: mean of both orientations
T31 chain: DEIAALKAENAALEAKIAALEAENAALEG

4H971-AA = molecular target: T32, 4H971-AA; experiment: two-hybrid library CCmax; conditions: mean of both orientations
T32 chain: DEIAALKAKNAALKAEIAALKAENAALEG

4H2223-bH = molecular target: T33, 4H2223-bH; experiment: two-hybrid library CCNG1
T33 chain: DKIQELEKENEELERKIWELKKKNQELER

4H2438-bH = molecular target: T34, 4H2438-bH; experiment: two-hybrid library CCNG1
T34 chain: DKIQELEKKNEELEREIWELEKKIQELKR

4H2473-bH = molecular target: T35, 4H2473-bH; experiment: two-hybrid library CCNG1
T35 chain: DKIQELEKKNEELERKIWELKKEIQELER

4H2503-bH = molecular target: T36, 4H2503-bH; experiment: two-hybrid library CCNG1
T36 chain: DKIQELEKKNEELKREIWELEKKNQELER

4H2588-bH = molecular target: T37, 4H2588-bH; experiment: two-hybrid library CCNG1
T37 chain: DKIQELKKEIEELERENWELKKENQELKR

4H2692-bH = molecular target: T38, 4H2692-bH; experiment: two-hybrid library CCNG1
T38 chain: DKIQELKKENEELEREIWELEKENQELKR

4H2717-bH = molecular target: T39, 4H2717-bH; experiment: two-hybrid library CCNG1
T39 chain: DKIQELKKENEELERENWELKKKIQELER

4H2839-bH = molecular target: T40, 4H2839-bH; experiment: two-hybrid library CCNG1
T40 chain: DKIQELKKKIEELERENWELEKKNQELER

4H2915-bH = molecular target: T41, 4H2915-bH; experiment: two-hybrid library CCNG1
T41 chain: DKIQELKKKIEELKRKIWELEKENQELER

4H3057-bH = molecular target: T42, 4H3057-bH; experiment: two-hybrid library CCNG1
T42 chain: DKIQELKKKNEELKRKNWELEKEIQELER

4H319-bH = molecular target: T43, 4H319-bH; experiment: two-hybrid library CCNG1
T43 chain: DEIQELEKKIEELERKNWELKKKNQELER

4H3277-bH = molecular target: T44, 4H3277-bH; experiment: two-hybrid library CCNG1
T44 chain: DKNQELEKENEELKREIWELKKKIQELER

4H348-bH = molecular target: T45, 4H348-bH; experiment: two-hybrid library CCNG1
T45 chain: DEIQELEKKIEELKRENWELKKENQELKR

4H40-bH = molecular target: T46, 4H40-bH; experiment: two-hybrid library CCNG1
T46 chain: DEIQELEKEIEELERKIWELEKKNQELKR

4H477-bH = molecular target: T47, 4H477-bH; experiment: two-hybrid library CCNG1
T47 chain: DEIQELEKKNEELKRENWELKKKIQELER

4H492-bH = molecular target: T48, 4H492-bH; experiment: two-hybrid library CCNG1
T48 chain: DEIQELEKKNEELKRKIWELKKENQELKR

4H741-bH = molecular target: T49, 4H741-bH; experiment: two-hybrid library CCNG1
T49 chain: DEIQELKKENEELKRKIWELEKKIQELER

interaction score (4H1146-AA): -0.0838
interaction score (4H1348-AA): -1.15
interaction score (4H1391-AA): -1.56
interaction score (4H146-AA): 0.0699
interaction score (4H1809-AA): 2.05
interaction score (4H1854-AA): -0.715
interaction score (4H189-AA): -1.57
interaction score (4H2248-AA): -0.598
interaction score (4H2283-AA): -0.542
interaction score (4H2713-AA): -0.725
interaction score (4H2742-AA): -1.39
interaction score (4H2948-AA): -0.764
interaction score (4H2991-AA): -0.0174
interaction score (4H3029-AA): -1.14
interaction score (4H3066-AA): -1.53
interaction score (4H3102-AA): 0.627
interaction score (4H3121-AA): -0.198
interaction score (4H3417-AA): 0.618
interaction score (4H3446-AA): 0.452
interaction score (4H3591-AA): -0.991
interaction score (4H3628-AA): -1.65
interaction score (4H3666-AA): 2.01
interaction score (4H3709-AA): -0.436
interaction score (4H391-AA): -1.21
interaction score (4H3920-AA): -1.58
interaction score (4H3939-AA): -1.69
interaction score (4H428-AA): -0.861
interaction score (4H478-AA): -1.22
interaction score (4H497-AA): -1.98
interaction score (4H656-AA): 1.71
interaction score (4H675-AA): 0.0108
interaction score (4H971-AA): -0.562
Binder: DENAALEAEIAALKAKNAALKAEIAALKG [4H1146-AA]

interaction score (4H2223-bH): -0.882
interaction score (4H2438-bH): -0.678
interaction score (4H2473-bH): 0.446
interaction score (4H2503-bH): 1.19
interaction score (4H2588-bH): 0.461
interaction score (4H2692-bH): 0.736
interaction score (4H2717-bH): 0.113
interaction score (4H2839-bH): 0.582
interaction score (4H2915-bH): 0.816
interaction score (4H3057-bH): 0.455
interaction score (4H319-bH): -0.374
interaction score (4H3277-bH): 0.0226
interaction score (4H348-bH): -1.35
interaction score (4H40-bH): -1.6
interaction score (4H477-bH): -0.907
interaction score (4H492-bH): -0.847
interaction score (4H741-bH): 0.0741
Binder: DKIQELEKENEELERKIWELKKKNQELER [4H2223-bH]
